Test results published in US20090274696A1, “METHODS FOR TREATING INFLAMMATION” (WYETH, priority 2008, published 2009).

Columns and labels:
[1] = tested on: tracheal smooth muscle (TSM) of mouse tracheal rings; assay: ISO-induced relaxation of CCh-contracted tracheal rings; type: cell-based; conditions: in either presence or absence of rFIZZ1
Method: (§1) Experimental animals were sacrificed by CO2 asphyxiation. Tracheas were surgically excised and cleaned of adherent connective tissue. Each trachea was sectioned into rings 3-4 mm in length and cultured in DMEM containing 1.0 M HEPES, 1.0 M NaOH, 5% of heat-inactivated FBS (Hy-Clone, Logan, Utah), 0.2M glutamine, 1.0 M CaCl2, 2.5 μg/ml fungizone, 5 μg/mL insulin, 100 U/mL penicillin and 100 μg/mL streptomycin) (DMEM-5%) for 24 hours. For in vitro experiments, the tracheal rings were cultured in DMEM in the absence and presence of either 10 or 100 nM recombinant FIZZ1 (Leinco Technologies, USA) for 24 hours.
(§2) Trachea were supported longitudinally by a plexiglas rod with a stainless steel pin into the base of a double-jacketed, glass organ bath filled with 10 mL of Krebs-Henseleit (K-H) solution (37° C.) of the following composition: 118 mM NaCl; 4.7 mM KCl; 1.2 mM KH2PO4; 11.1 mM Dextrose; 1.2 mM MgSO4; 2.8 mM CaCl2; and 25 mM NaHCO3. The solution was maintained at a pH of 7.40-7.45 and continuously gassed with a mixture of 5% CO2 and […] for the duration of each experiment. […] Initial tensions of TSM were set at approximately 0.5 g and maintained for 1 hour. Agonists were given after a steady state of tension had been reached.
[CCh]-response curves at the doses ranging from 3×10^−8 to 10^−5 M were completed in tracheal rings in absence and presence of either FIZZ1 or LPS (0.1 ng/mL). Concentrations of agonist were increased only when force responses to the previous concentration had stabilized. To examine TSM relaxant responses to isoprenaline (ISO), tracheal rings were first contracted by an addition of 1.0 μM CCh (Sigma, USA). Once the contraction had stabilized, ISO (Sigma, USA) was introduced into each bath at increasing concentrations (3×10^−8-10^−5 M). […]
(§3) At the end of each force measurement experiment, tracheas were blotted on a gauze pad and weighted. Results were calculated as milligram of tension per milligram of TSM weight (mg/mg) and expressed as an individual percentage (%) of 10 μM CCh- or 200 μM papaverine-induced tension response in PBS-treated trachea. […]

[2] = tested on: TSM of fresh tracheal rings; assay: Force response of fresh tracheas from intranasally challenged mice; type: in vivo, mouse; conditions: intranasal once a day×5 days, 100 nM rFIZZ1 or 0.1 ng/ml LPS; 24 hours after last treatment; PBS 100.00±14.63; N=5
Method: (§4) For some experiments, ex vivo TSM tensions of fresh tracheal rings and BAL cell counts were measured at 24 hours after the last treatment of mice receiving an intranasal dose of either PBS, 0.1 ng/m: LPS or 100 nM rFIZZ1 (once a day×5 days).
as §2
(§5) At the end of each force measurement experiment, tracheas were blotted on a gauze pad and weighted. Results were calculated as milligram of tension per milligram of TSM weight (mg/mg) and expressed as an individual percentage (%) of 10 μM CCh- or 200 μM papaverine-induced tension response in PBS-treated trachea. For the control group, CCh (papaverine)-mediated responses were normalized to the mean value of the maximal responses.

BAL cells [3] = assay: Counts of BAL cells in intranasally challenged mice; type: in vivo, mouse; conditions: intranasal once a day×5 days, 100 nM rFIZZ1 or 0.1 ng/ml LPS; vs PBS-treated mice
Method: as §4
(§6) PBS- and OA-treated mice were sacrificed and their airways lavaged once with 1.0 mL of PBS via tracheal cannulation. An equal volume of BAL from each mouse was collected and centrifuged (1200 rpm, 5 min). Total BAL cells were counted using a hemocytometer. BAL cells ([…]) collected from each sample were applied to a glass slide using a cytospin (800 rpm, 8 min) and then the slide was stained with Hema 3 Stain Set (Fisher Scientific) for the differential count of cells. The relative proportion of different cells counted from 300 cells/slide was factored to the number of total BAL cells collected in each group.

[4] = tested on: mouse tracheal epithelium cells (MTEC); assay: Nitrite in MTEC supernatants, Griess reaction; type: cell-based; conditions: PBS, 0.1 ng/mL LPS or 100 nM rFIZZ1; any measured time point; N=3
Method: MTEC culture was performed by following the protocol of You et al. (“Growth and differentiation of mouse tracheal epithelial cells: selection of a proliferative population,” Am J Physiol Lung Cell Mol Physiol, 2002, 283:L 1315-1321) with minor modification. Briefly, tracheas were incubated in 1.5 mg/mL pronase (Roche Molecular Biochemicals) for 18 h at 4° C. Cells were treated with 0.5 mg/mL crude pancreatic DNase I (Sigma-Aldrich) on ice for 5 min. After incubation in tissue culture plates for 3-4 h in 5% CO2 at 37° C., nonadherent cells were incubated in a plate coated with type I rat tail collagen (BD Biosciences) in modified BEBM (Lonza, Md. USA) containing 10 μg/ml insulin, 5 μg/ml transferrin, 25 ng/ml epidermal growth factor, 5 μg/ml epinephrine and 30 μg/ml bovine pituitary extract, 0.5 nM Hydrocortisone, 25 ng/ml hEGF, 15 nM Triiodothyronine, 0.25 μg/ml Gentamicin/amphotericin-B and 0.01 μM retinoic acid in 5% CO2 at 37° C. […]
Nitric oxide (NO) was examined by measuring an end product, nitrite, using the Griess reaction (Xu et al., “Arginase and autoimmune inflammation in the central nervous system,” Immunology, 2003; 110:141-148). […] Absorbance was read at 540 nm in an automated microplate reader. […]

[5] = tested on: tracheal smooth muscle (TSM) of mouse tracheal rings; assay: CCh-evoked force generation in cultured tracheal rings; type: cell-based; conditions: FIG. 4B, 100 nM heat-inactivated or native rFIZZ1, 0.1 ng/mL LPS, PBS 100±4.82, n=6
Method: as §1, §2
[CCh]-response curves at the doses ranging from 3×10^−8 to 10^−5 M were completed in tracheal rings in absence and presence of either FIZZ1 or LPS (0.1 ng/mL). Concentrations of agonist were increased only when force responses to the previous concentration had stabilized. To examine TSM relaxant responses to isoprenaline (ISO), tracheal rings were first contracted by an addition of 1.0 μM CCh (Sigma, USA). Once the contraction had stabilized, ISO (Sigma, USA) was introduced into each bath at increasing concentrations (3×10^−8-10^−5 M). […] In an additional experiment, the effect of FIZZ1 protein on the CCh-mediated force response was verified using 100 nM heat-inactivated FIZZ1 (natural and recombinant FIZZ1 solution heated at 70° C. for 60 min). Their dose-response curves were obtained as above. Fresh drug solutions such as CCh and ISO were made up on the day of the experiment. Doses of the above agents refer to the final bath concentration.
as §5

[6] = tested on: airway epithelium of cultured trachea; assay: Histological examination of tracheal rings and airway epithelium; type: cell-based, mouse; conditions: cultured overnight with FIZZ1 100 nM or LPS 0.1 ng/mL
Method: Histological examination of the structure of the airway and the status of the airway epithelial layer was performed in whole/sectional fresh trachea and as well as trachea cultured overnight with and without 100 nM FIZZ1. To understand the role of airway epithelium in regulating contractility of TSM, we measured the contractile response of tracheal rings after the epithelium was mechanically removed. Briefly, airway epithelial cells were removed by gently rubbing the intraluminal surface with polyethylene tubing (Becton Dickinson & Company, MD USA) connected to a Precision Glide needle (30G1/2) followed by perfusion with 1.0 ml air bubbles and then 1.0 ml K-H solution (re). All of the experimental tracheas were stained with H & E solution (CAT hematoxylin, Edgar Degas Eosin Working Solution, Biocare Medical, Concord, Calif.) and photographed under a light microscope at ×4.0 and ×20 magnification. Tracheal morphometric analysis was performed using a computer-based image analysis system consisting of a Nikon Eclipse E800 microscope (Melville, N.Y. USA) with a SPOT RT Slider camera (Diagnostic Instruments, Inc., Sterling Heights, Mich. USA).

BAL cells [7] = assay: BAL cellular composition in OA-treated mouse model; type: in vivo; conditions: OA/OA-treated mice vs PBS/PBS and OA/PBS; n=6
Method: (§7) Animals were divided into three groups including phosphate buffered saline (PBS)-sensitized and -challenged (PBS/PBS), OA-sensitized and PBS-challenged (OA/PBS), and OA-sensitized and -challenged mice (OA/OA). Mice were intraperitoneally injected with an equivalent volume (100 μL) of PBS or OA (20 μg) with 2.25 mg Al(OH)3 in PBS on day 0 and 14. From day 25 to 34, mice were challenged with an aerosol of PBS or OA (5% in PBS) for 30 min once a day for 10 consecutive days.
as §6

FIZZ1 mRNA = FIZZ1 mRNA expression in trachea by transcriptional profiling; type: in vivo, mouse; conditions: OA/OA-treated mice over PBS/PBS- or OA/PBS-treated mice
Method: as §7
Three (3) groups of mice were analyzed using PBS/PBS, OA/PBS and OA/OA, with 18 animals per group. Tracheal rings from 6 animals per group were combined as replicates, to produce total RNA. […] RNA was quantified using the Nanoprop ND-1000 spectrophotometer. […] The Ovation kit utilizes the Ribo-SPIA process to linearly amplify and label, limiting amounts mRNA in a three-step process resulting in microgram quantities (Kum et al, “Novel Isothermal, Linear Nucleic Acid Amplification Systems for Highly Multiplexed Applications,” Clinical Chemistry, 2005; 51:1973-1981). Approximately 1.5 μg of purified and fragmented biotinylated cRNA, together with controls for quantitating the amount of each transcript, was hybridized to the mouse gene chip array, MOE 430—2.0 (Affymetrix) for 16-18 hours. […] Resulting signals were normalized and quantified using Gene Logic's MAS 5.0 software.

FIZZ1 protein = FIZZ1 protein in BAL by Western blot; type: in vivo, mouse; conditions: OA/OA-treated mice
Method: as §7
Protein expression levels of were examined using Western blot analysis. Briefly, aliquots (100 μg/well) of BAL supernatant and tracheal lysate were loaded onto 4-20% SDS-PAGE gel in an equal volume. Size-fractionated proteins were transferred to nitrocellulose membrane and then blocked with 5% nonfat dried milk in TBS at room temperature for 60 min. […] Immunoreactive bands were detected by chemiluminesence. Protein expression levels were evaluated in relative to expression of β-actin in the same tissue. Quantification of Western blots for phosphorylated signaling proteins was performed using ImageJ and relative band intensity was calculated as % of the intensity of the β-actin protein band.

TSM of tracheal rings = assay: TSM contractile response to CCh in OA-treated mouse model; type: in vivo; conditions: PBS/PBS 100±6.77, n=6
Method: as §7
Experimental animals were sacrificed by CO2 asphyxiation. Tracheas were surgically excised and cleaned of adherent connective tissue. Each trachea was sectioned into rings 3-4 mm in length and cultured in DMEM containing 1.0 M HEPES, 1.0 M NaOH, 5% of heat-inactivated FBS (Hy-Clone, Logan, Utah), 0.2M glutamine, 1.0 M CaCl2, 2.5 μg/ml fungizone, 5 μg/mL insulin, 100 U/mL penicillin and 100 μg/mL streptomycin) (DMEM-5%) for 24 hours. For in vitro experiments, the tracheal rings were cultured in DMEM in the absence and presence of either 10 or 100 nM recombinant FIZZ1 (Leinco Technologies, USA) for 24 hours. […]
as §3

CC(C)NCC(O)c1ccc(O)c(O)c1 (centres unmarked) [ISO, isoprenaline, reference compound]
TSM relaxation, level relative to the relaxation by papaverine [1]: 50%

lipopolysaccharide [LPS, reference compound]
Maximal tensions (%) of TSM, CCh-evoked, fresh trachea [2]: 108.28±5.44%
number of BAL cells (BAL cells [3]): obvious increase
changes in nitrite concentration in MTEC supernatants [4]: not obvious
maximal responses (%) of the tracheal rings, CCh-evoked [5]: 96.40±4.31%
smooth muscle layers, histology [6]: clear and histologically intact

B1: ovalbumin (protein, UniProt P01012 2-386, looked up)
Ovalbumin: GSIGAASMEFCFDVFKELKVHHANENIFYCPIAIMSALAMVYLGAKDSTRTQINKVVRFDKLPGFGDSIEAQCGTSVNVHSSLRDILNQITKPNDVYSFSLASRLYAEERYPILPEYLQCVKELYRGGLEPINFQTAADQARELINSWVESQTNGIIRNVLQPSSVDSQTAMVLVNAIVFKGLWEKAFKDEDTQAMPFRVTEQESKPVQMMYQIGLFRVASMASEKMKILELPFASGTMSMLVLLPDEVSGLEQLESIINFEKLTEWTSSNVMEERKIKVYLPRMKMEEKYNLTSVLMAMGITDVFSSSANLSGISSAESLKISQAVHAAHAEINEAGREVVGSAEAGVDAASVSEEFRADHPFLFCIKHIATNAVLFFGRCVSP
notes: allergen used to sensitize and challenge mice (OA/OA, OA/PBS groups)
number of lymphocytes and eosinophils in the BAL (BAL cells [7]): markedly increased
number of total BAL cells (BAL cells [7]): large increase
Fc in FIZZ1 mRNA expression in trachea (FIZZ1 mRNA): 1000 fold
FIZZ1 protein in the BAL (FIZZ1 protein): easily detected
contractile forces (%) of TSM to CCh (TSM of tracheal rings; OA/OA: OA-sensitized and -challenged mice): 127.75±3.54%
contractile forces (%) of TSM to CCh (TSM of tracheal rings; OA/PBS: OA-sensitized and PBS-challenged mice): 105.21±2.71%

B2: heat inactivated rFIZZ1: FIZZ1 solution heated at 70° C. for 60 min (protein, UniProt Q9EP95 24-111, looked up)
Resistin-like alpha: DETIEIIVENKVKELLANPANYPSTVTKTLSCTSVKTMNRWASCPAGMTATGCACGFACGSWEIQSGDTCNCLCLLVDWTTARCCQLS
modifications: heat inactivated
notes: FIZZ1 solution heated at 70° C. for 60 min
maximal responses (%) of the tracheal rings, CCh-evoked [5]: 100.00±4.77%
maximal responses (%) of the tracheal rings, CCh-evoked ([5]; listed as Heat-inactivated FIZZ1): no observable effect
